# Measurements as given in patent CN114044821A (INST MILITARY MEDICINE ACADEMY MILITARY SCIENCES PLA, dated 2022).
# B1: 抗SARS-CoV-2全人源单克隆抗体ZWC12 (antibody, V domains shown)
# VH: EVQLVESGGALVQPGGSLRLSCAASGFTFANYAMSWVRQAPGKGLEWVSSMTGSSIDSYYADSVKGRFTISRDNSRNTLYLQMNSLRAEDTAVYYCAKGELLWFGDLLHNWFDPWGRGTLVTVSS
# VL: DIVMTQSPATLSVSPGERATLSCRASQSVSTNLAWYQQKPGQAPRLLIHGASTRATGLPARFSGSGSGTEFTLTISSLQSEDFAVYFCQQYDSWPGTFGPGTKVDIKR
# Tests used:
# SARS-CoV-2 WT S-ECD蛋白 = SARS-CoV-2 WT S-ECD蛋白 (SARS-CoV-2, UniProt P0DTC2 14-1213)
# Omicron株刺突蛋白(S蛋白)，在假病毒表面 = Omicron株刺突蛋白(S蛋白)，在假病毒表面 (SARS-CoV-2 Omicron株 (B.1.1.529)); assay: cell-based or functional assay
# [1] = target: Delta株刺突蛋白(S蛋白)，在假病毒/真病毒表面 (SARS-CoV-2 Delta株 (B.1.617.2)); assay: cell-based or functional assay
# Alpha株刺突蛋白(S蛋白)，在假病毒表面 = Alpha株刺突蛋白(S蛋白)，在假病毒表面 (SARS-CoV-2 Alpha株 (B.1.1.7)); assay: cell-based or functional assay
# Gamma株刺突蛋白(S蛋白)，在假病毒表面 = Gamma株刺突蛋白(S蛋白)，在假病毒表面 (SARS-CoV-2 Gamma株 (P.1)); assay: cell-based or functional assay
# [2] = target: Beta株刺突蛋白(S蛋白)，在假病毒/真病毒表面 (SARS-CoV-2 Beta株 (B.1.351)); assay: cell-based or functional assay
binder,measurement,setting,value
B1,Kd,SARS-CoV-2 WT S-ECD蛋白,1.75 nM
same,"假病毒中和 EC50 (luciferase, HEK293T)",Omicron株刺突蛋白(S蛋白)，在假病毒表面,0.093 µg/mL
same,"假病毒中和 EC50 (luciferase, HEK293T)",[1],0.411 µg/mL
same,"真病毒中和 EC50 (Vero E6, crystal violet)",[1],7.97 µg/mL
same,"假病毒中和 EC50 (luciferase, HEK293T)",Alpha株刺突蛋白(S蛋白)，在假病毒表面,0.124 µg/mL
same,"假病毒中和 EC50 (luciferase, HEK293T)",Gamma株刺突蛋白(S蛋白)，在假病毒表面,0.136 µg/mL
same,"假病毒中和 EC50 (luciferase, HEK293T)",[2],0.162 µg/mL
same,"真病毒中和 EC50 (Vero E6, crystal violet)",[2],721 µg/mL
